Experimental findings from article PMC4603552 are described below.

Read-outs that look alike come from different tables or passages of the source.

Consider “PML (PML-IV): K65R (FLAG-PML-IV-GFP, CHO-K1)”, for which, under “SUMOylation at K65”, the other entry is recorded as “decreases”.

For “PML (PML-IV): K65R in FLAG-PML-IV (aa 49-633)”, the other entry (SUMOylation at K65) is recorded as “decreases”.

Regarding “PML (PML-IV): K160R (FLAG-PML-IV-GFP, CHO-K1)”, under “SUMOylation at K160”, the other result is “decreases”.
